System: MS2 coat protein
Test: apparent KD of MS2 coat protein; designed switch direction (-1 OFF switch, 1 ON switch): -1; higher = weaker reporter binding
Procedure, shortened: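 Each step of the titration lasted 0.8–1.5 h at the lowest concentration and 10–20 min at the highest. The protein, SNAP-549-labelled MS2 coat protein, went from 0.7 or 1.5 nM doubling to 3 µM over RNA switches transcribed on Illumina chips by stalled E. coli RNA polymerase. Normalised cluster fluorescence was curve-fitted, and the per-design median over clusters is given as apparent KD.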

[1] = Eterna round: R95, input ligand: microRNA oligo, concentration not stated
[2] = input ligand: microRNA oligo, concentration not stated

Row | Sequence | apparent KD of MS2 coat protein (input ligand: FMN 200 uM) [nM] | apparent KD of MS2 coat protein (input ligand: none) [nM] | other results
1 | AUUUUAAUAUAGGAUAUCGAUUUUAUUAUUUAACGAGAAGGAUAAACAUGAGGAUCACCCAUGUGGUAUCAUGG [JMFs Solution 3] (puzzle: Exclusion 6) |  |  | apparent KD of MS2 coat protein [1]: 123 nM
2 | AUUUUAGAAGGAUAUUGACCGGUGGACAUGAGGAUCACCCAUGUCGUCCUGCCCAUUCCGUAAGAAGGUCUAGCGU [Eternabot (L1) Solution 96] (Eterna round: R97, puzzle: Exclusion 5) | 23.7 | 24.8 | 
3 | AUUUUAUAACAAGGAUAUACUAAACAUGAGGAUCACCCAUGUAAUAUUAUGAGUGAGAGAGAGAAGUAGAAGGUGUAUUAUUUU [JMF solution 1] (Eterna round: R96, puzzle: Exclusion NG 2) |  |  | apparent KD of MS2 coat protein [2]: 97.4 nM
4 | AUUUUGUCAGGAUAUGACUAGAUGCACGAAAGUGCAUCUACUUAGAAGGGACAUGAGGAUCACCCAUGUAUUCC [Bring Us a Shrubbery-11] (puzzle: Exclusion 4) |  |  | apparent KD of MS2 coat protein [1]: 13.9 nM
5 | AUUUUGUCAGGAUAUGAGUAGUAGGACGAAAGUGCUACUACUUAGAAGGGACAUGAGGAUCACCCAUGUCUUCC [Bring Us a Shrubbery-05] (puzzle: Exclusion 4) |  |  | apparent KD of MS2 coat protein [1]: 13.5 nM
6 | AUUUUGUCAGGAUAUUGUUAGUUUAGUUGUUUGUAUUAGUUCGAGAAGGGACAUGAGGAUCACCCAUGUGAUAA [Ex4 #72] (Eterna round: R97, puzzle: Exclusion 4) | 71.9 | 62.6 | 
7 | AUUUUGUGAGGAUAUUAGUAGUAAAUGAAUAAAAUUAUUACUGAGAAGGCACAUGAGGAUCACCCAUGUUCCUA [Mat - Exclusion 4 - Eli Mod - D7] (Eterna round: R97, puzzle: Exclusion 4) | 175 | 19.2 | 
8 | AUUUUGUGAGGAUAUUAGUUGUAGAAAAUUGUUAGUAUAGCUGAGAAGGCACAUGAGGAUCACCCAUGUACAAC [JR_Ex4_Sub040] (Eterna round: R97, puzzle: Exclusion 4) | 31.1 | 18.1 | 
9 | AUUUUGUGAGGAUAUUAGUUUUAUAAUUUUAUUAGUUUAGCUGAGAAGGCACAUGAGGAUCACCCAUGUAAAUC [JR_Ex4_Sub045] (Eterna round: R97, puzzle: Exclusion 4) | 42.5 | 22.9 | 
10 | CAAAACACUGGAGGAUAUUGGAAAGGAAGUGUACAAGAAGGCCAGCUCUAACAUGAGGAUCACCCAUGUCCAGGGCAUGGGCAA [PowerStrip EXNG 1.12] (Eterna round: R96, puzzle: Exclusion NG 1) | 31.8 | 11.7 | apparent KD of MS2 coat protein [2]: 19.9 nM
11 | CAAAACCGAGGAUAUACUUCGGAGAUAAAGGUAAGUCAAAGACUUGAGGAUCACCCAAGUAGAAGGCGGACGGA [Laeded] (Eterna round: R97, puzzle: Exclusion 2) | 95.5 | 22.4 | 
12 | CAAAAGAGAGGAUAUACAUGAGGAUCACCCAUGUAAAGUCCGCUGGUUGUUCAGAUAUGUAGAAGGCUCGUGUC [EX3 C.5] (Eterna round: R97, puzzle: Exclusion 3) | 16.9 | 14.4 | 
13 | CAAAAGCUAGGAUAUUGAGGUGGGCACAUGAGGAUCACCCAUGUGGACCUCGAGCCUACGCAAGAAGGAGUAAAAU [Rioren] (puzzle: Exclusion 5) |  |  | apparent KD of MS2 coat protein (Eterna round: R95, input ligand: FMN 200 uM): 18 nM; apparent KD of MS2 coat protein [1]: 13.1 nM; apparent KD of MS2 coat protein (Eterna round: R95, input ligand: none): 17 nM
14 | CAAAAGGAAGGAUAUACAUGUUAAUUAUCCGAAGAUGUCGUACAUGAGGAUCACCCAUGUAGAAGGUCCAAAAC [Tiesbiused] (puzzle: Exclusion 2) |  |  | apparent KD of MS2 coat protein [1]: 27.1 nM
15 | CAAAAUGUAUAAGGAUAUCUCGCCAAUAAAGGCAGAGAAGGUAUACCCACUUGAGGAUCACCCAAGUCACGUGUGCCUGGUGGA [Mutated MS2 EX1.25] (Eterna round: R96, puzzle: Exclusion NG 1) | 9.27 | 11 | apparent KD of MS2 coat protein [2]: 9.25 nM
16 | CAAAAUGUAUAAGGAUAUCUCGCCAAUAAAGGCAGAGAAGGUAUACCCACUUGAGGAUCACCCAAGUCAGGUGUGCCUGGUGGA [Mutated MS2 EX1.24] (Eterna round: R96, puzzle: Exclusion NG 1) | 7.87 | 10.9 | apparent KD of MS2 coat protein [2]: 7.61 nM
17 | CAAAUCUGAGGAUAUCGAUAUUUGUACAUGAGGAUCACCCAUGUCCUAUUUAUAAAAUCCCGAGAAGGCAGUGUAU [JR_E5_Sub095] (puzzle: Exclusion 5) |  |  | apparent KD of MS2 coat protein [1]: 16.2 nM
18 | CAACCUCACGAGGAUAUCAAUGCUAGUUGGCGUUGAGAAGGCGUAACAUGAGGAUCACCCAUGUGGUGGCGUAU [Eternabot (Original) Solution 26] (Eterna round: R97, puzzle: Exclusion 6) | 1020 | 921 | 

Row | Sequence | apparent KD of MS2 coat protein (input ligand: FMN 200 uM) [nM] | apparent KD of MS2 coat protein (input ligand: none) [nM] | other results
19 | CAACGAAGUCGAGGAUAUGCCCACUCCGCAGCGGCAGAAGGCGACAUGAGGAUCACCCAUGUAACGGCUAACGGGAUGGGAAGG [Eternabot solution 7] (Eterna round: R96, puzzle: Exclusion NG 1) | 162 | 25.9 | apparent KD of MS2 coat protein [2]: 17.7 nM
20 | CAACGAUGAGGAUAUACAUGAGGAUCACCCAUGUGGUCCAGCAGCCAUUACGGCGAAGGUAGAAGGCGUUAUUA [Eternabot (L2) Solution 54] (Eterna round: R97, puzzle: Exclusion 3) | 349 | 386 | 
21 | CAACGUAGUAAGGAUAUCCGGCAAAAGGCUACAGGAGAAGGUACUACAUGAGGAUCACCCAUGUGGAACUGUAA [EX6 B.7] (Eterna round: R97, puzzle: Exclusion 6) | 16.8 | 16.1 | 
22 | CAAGCUUUGCGAGGAUAUGAUGGCCGAUAUGCCUCAGAAGGCGCAGAAACUUGAGGAUCACCCAAGUGAUGCAACGACGACCAU [Mutated MS2 EX1.12] (Eterna round: R96, puzzle: Exclusion NG 1) | 27.1 | 15.7 | apparent KD of MS2 coat protein [2]: 10.7 nM
23 | CAAUAACAAGCGAGAUCCUACAUGAGGAUCACCCAUGUGCUCGUCUUAUAAGGUACUGUGACGAUAGUCACGGUACC [Mat - Sensor, turn-off var - Eli Mod - D97] (Eterna round: R97, puzzle: Sensor, turn-off variant 1) | 18.9 | 19.6 | 
24 | CAAUAGCGAGGAUAUACAUGAGGAUCACCCAUGUGAUCCUUAGGCUGUUGAAGCCUAUGUAGAAGGCGCAAAUU [jl-ex3.4.57 ViennaUCT mod] (Eterna round: R97, puzzle: Exclusion 3) | 198 | 138 | 
25 | CAAUAGGGAGGAUAUCCAAUAUAUGACAUGAGGAUCACCCAUGUUUCCACUCGUACCUCCGGAGAAGGCCCAUAAC [Ex5 #7] (Eterna round: R97, puzzle: Exclusion 5) | 21.1 | 21.7 | 
26 | CAAUAUUAUCGAGGAUAUCCUAUUGUAUUUCUGGGAGAAGGCGGACUCAACAUGAGGAUCACCCAUGUAAGACGGGUACUAGAU [Ex NG1 #20] (Eterna round: R96, puzzle: Exclusion NG 1) | 119 | 98.5 | apparent KD of MS2 coat protein [2]: 81 nM
27 | CAAUGAGGAGUGAGGAUAUCGUGUUCGAAAGAACGUGAGAAGGCACAUGAGGAUCACCCAUGUGAUCCUCAUUG [Omei Ex4B A24] (Eterna round: R97, puzzle: Brourd's mod of Exclusion 4) | 98.2 | 53.3 | 
28 | CAAUGUACCUAGGAUAUAACCUACGACAUUGGGUUAGAAGGAGGAACAUGAGGAUCACCCAUGUGACUUCGCAA [Abiisbe] (puzzle: Exclusion 6) |  |  | apparent KD of MS2 coat protein [1]: 9.5 nM
29 | CAAUUCCGAGGAUAUACAUGAGGAUCACCCAUGUCGGGCCUCAGCGUUUAGCGCCUAAGUAGAAGGUGGGUUUC [JL Riri mod 4] (Eterna round: R96, puzzle: Exclusion 3) | 47.1 | 46.6 | apparent KD of MS2 coat protein [2]: 31.7 nM
30 | CAAUUCCGAGGAUAUACAUGAGGAUCACCCAUGUCGGGCCUCAGCGUUUAGCGCCUAAGUAGAAGGUGGGUUUC [JL Riri mod 4] (puzzle: Exclusion 3) |  |  | apparent KD of MS2 coat protein [1]: 37.1 nM
31 | CAAUUCUGAGGAUAUGUGCCUCUGGACAUGAGGAUCACCCAUGUGGAGGCUGUAUGGGAGGCAGAAGGUAGAGAUC [Eternabot (L1) Solution 7] (Eterna round: R97, puzzle: Exclusion 5) | 16.4 | 18.2 | 
32 | CACACACAUGAGGAUCACCCAUGUCAGGAUAUCGACACACACCCACACAAACAAACCACGAGAAGGGACGGCCA [E4 1] (Eterna round: R97, puzzle: Exclusion 1) | 37 | 48.6 | 
33 | CACACGUAAGGAUAUACAACGGAAACGGGCGCGCGGGCCUCACAUGAGGAUCACCCAUGUAGAAGGUGCACGGG [Eternabot (Original) Solution 18] (Eterna round: R97, puzzle: Exclusion 2) | 41.7 | 50.3 | 
34 | CACAGGAGACGGAGAUCCAACAUGAGGAUCACCCAUGUCUCAAAAGCUUUUUGCUUGUCUUAUCCUCCUCUCUUGAC [Mat - Sensor, turn-off var - Eli Mod - D60] (Eterna round: R97, puzzle: Sensor, turn-off variant 1) | 26 | 28.1 | 
35 | CACAUCAAAGGAUAUCUGGACCAAAACAUGAGGAUCACCCAUGUAUGAACAUGGCUCGACGGAGAAGGUUGGCUUC [Eternabot (L1) Solution 51] (Eterna round: R97, puzzle: Exclusion 5) | 86.2 | 79.3 | 
